We go through 6 substances from patent US9809627B2, “Cyclized transthyretin peptide and methods of use therefor” (Wisconsin Alumni Research Foundation, priority 2014, dated 2017).

Entries after “also recorded” stand apart in the source; their conditions may differ. Where no end group is shown, it is not given here. [ ]: non-standard residue; d: D form.

Data set [1] can be described thus: Peptide self-association by PICUP cross-linking and gel electrophoresis. It counts as physicochemical. Particulars: PICUP cross-linking, gel electrophoresis. The method, then: Peptides were also cross-linked by PICUP and analyzed for self-association. Twenty microliters of peptides at 36 μM in PBSA was incubated for 1 hr at 37° C. and cross-linked. Cross-linked samples were then heated at 95° C. for 5 min and separated on a 10-20% Tris-Tricine gradient gel. Peptides were visualized by silver staining (SilverStain Kit, Pierce, Rockford, Ill.).

Data set [2] has as its target T1, Aβ (1-40) (Homo sapiens, UniProt P05067).
T1 construct: Aβ (1-40) was purchased from Anaspec, Inc. (Fremont, Calif.) as lyophilized powder; purchased Anaspec, Inc. (Fremont, Calif.)
In words: Thioflavin T (ThT) fluorescence assay of Aβ aggregation. It counts as biochemical. Particulars: 28 μM Aβ; for inhibition of ThT fluorescence increase: up to 48 h, 2.8 μM peptide or mTTR; for ThT fluorescence intensity of Aβ with peptide: 2.8 μM peptide. The protocol:
(§1) Aβ (1-40) was purchased from Anaspec, Inc. (Fremont, Calif.) as lyophilized powder. For dynamic light scattering, ThT fluorescence assay, TEM, NTA measurement and filtration/sedimentation assay, Aβ was dissolved in 50% ACN, re-lyophilized, and reconstituted in 8M urea at 12 mg/mL. Aβ stock was then aliquoted, snap-frozen in ethanol with dry ice, and stored at −80° C. For PICUP and proteolytic fragmentation analysis, lyophilized Aβ was dissolved in prechilled hexafluoroisopropanol (HFIP, Acros Organics, Geel, Belgium), aliquoted, dried and stored at −20° C. as previously described (Cho et al., 2014). Aβ sample was prepared right before use by dissolving dried peptides in 50 mM NaOH and diluting into phosphate-buffered saline (PBSA) (10 mM Na2HPO4/NaH2PO4, 150 mM NaCL and 0.02% NaN3 (pH 7.4)) to 30 μM as previously described (Cho et al., 2014).
ThT stock solutions were prepared in PBSA and filtered through 0.22 μm filter. The concentration of ThT was measured using an extinction coefficient of 26,620 M^−1 cm^−1 at 416 nm and the stock solution was diluted to 10 μM in PBSA prior to the measurement. Aβ alone (28 μM) and with peptides (2.8 μM) or mTTR (2.8 μM) were prepared in PBSA and incubated for 48 hr at 37° C. After 1, 5, 24 and 48 hr of incubation, 10 μL of each sample was mixed with 130 μL of 10 μM ThT and analyzed. ThT fluorescence emission was measured using a QuantaMaster spectrofluometer (PTI, Birmingham, N.J.), with excitation at 440 nm and emission spectra recorded from 460 to 500 nm. Three serial spectra were averaged for each sample and the background signal of ThT in PBSA was subtracted from the averaged data. Fluorescence intensity at a wavelength of 480 nm was compared.

For data set [3], the target named is T1, Aβ (1-40). Kind of data set: Photoinduced cross-linking (PICUP) of Aβ and peptides. Type of data set: binding. Conditions: for interaction with Aβ (shift in cross-linked Aβ size distribution): pre-aggregated Aβ, 10:1 molar excess of Aβ, Western blot 4G8. The method, then:
as §1
Aβ prepared with HFIP/NaOH treatment at 30 μM as described was mixed with peptides to a final concentration of 24 μM Aβ and 2.4 μM peptides. Aβ stock was used immediately (freshly prepared) or after incubation for 24 hr at 37° C. (1 day pre-aggregated). Samples of Aβ with and without peptides were incubated for 1 hr at 37° C. and cross-linked by photo-induced cross-linking method as previously described (Cho et al., 2014). Cross-linked samples were then separated on a 10-20% Tris-Tricine gradient gel (Iinvotrogen, Carlsbad, Calif.), transferred onto a 0.2 μm poly(vinylidene difluoride) (PVDF) membrane and detected by monoclonal mouse anti-Aβ antibody 4G8 (Covance, Princeton, N.J.) as previously described (Cho et al., 2014).
In general terms: Immunoblotting shows a protein as a band on a membrane.

The target in data set [4] is T1, Aβ (1-40). Kind of data set: Proteolytic fragmentation assay of Aβ with peptides (Proteinase K). Type of data set: binding. Conditions: 3:1 molar excess of peptides, detection by 4G8. The protocol: as §1
The proteolytic fragmentation assay of Aβ with peptides was performed as previously described in detail (Cho et al., 2014). Briefly, Aβ alone (20 μM) or with peptide (60 μM) was incubated for 24 hr at 37° C. Proteinase K (Promega, Madison, Wis.) was added to the samples at a final concentration of 0.5 μg/mL and samples were dotted onto a 0.45 μm nitrocellulose membrane (Pierce) after incubation for 0, 5, 10, 20, 30, 40, 50, 60, 90 and 120 min. Membranes were then reacted with monoclonal antibodies against Aβ (6E10, Covance, against Aβ (3-8) and 4G8 against Aβ (18-22)) and visualized.

Data set [5] addresses T1, Aβ (1-40). In words: Dynamic light scattering of Aβ aggregate growth. Type of data set: biochemical. Particulars: 140 μM Aβ. The protocol: as §1
Aβ stock in 8M urea prepared as stated above was thawed and sonicated for 2 min before being diluted into PBSA. Aβ alone (140 μM) or mixed with peptides (14 μM) was filtered through […] filter directly into a light scattering cuvette and placed into a bath of the index-matching solvent decahydronaphthalene with temperature controlled to 37° C. Light scattering data were collected using a Brookhaven BI-200SM system (Brookhaven Instruments Corp., Holtsville, N.Y.) and an Innova 90C-5 argon laser (Coherent, Santa Clara, Calif.) operating at 488 nm and 150 mW. The average scattering intensity at 90° was measured over 10 hr and data were normalized to the total mass concentration. The z-averaged hydrodynamic diameter was determined from the autocorrelation function using the method of cummulants.

In data set [6] the test system is primary cortical neuronal cells. In words: In vitro cellular toxicity of Aβ (1-42), MTS assay. It counts as cell-based, mice. Conditions: for protection against Aβ toxicity: 10 μM Aβ. The method, then:
Aβ toxicity was assessed as described in detail previously (Yang et al., 2013; Cho et al., 2014). Briefly, the primary cortical neuronal cells were cultured from embryonic 15.5 day mice and were maintained in neurobasal media till they are matured. Aβ (1-42) (American Peptide, Sunnyvale, Calif.) at 1 mg/mL in PBS was diluted to 10 μM without or with peptides as previously described (Cho et al., 2014). At 6 days in vitro (DIV), the cells were treated with either Aβ alone or Aβ incubated with different doses of mTTR and peptides. Appropriate vehicle and controls were run along with the treatments. At 8 DIV, the neurons were incubated with MTS reagent (Promega) as per manufacturer protocol for 2-3 hrs and absorbance was measured at 490 nm.
(Formazan colour is commonly taken as a measure of viable cells.)

Data set [7] in a line: Peptide self-aggregation by light scattering. Particulars: 80 μM, 37° C., after 1 hr of incubation. Type of data set: physicochemical. The method, then:
To further probe for self-aggregation, G16, LG3, and CG3 were incubated at 80 μM at 37° C. and analyzed by light scattering.

For data set [8], the target named is T1, Aβ (1-40). Kind of data set: Filtration/sedimentation assay of Aβ aggregation. It counts as biochemical. The protocol: as §1
Aβ alone (30 μM) or with CG3 (3 μM) was prepared in PBSA and incubated for 24 hr at 37° C. For filtration, 175 μL of sample was filtered through 0.45 μm filter. For sedimentation, 100 μL of sample was transferred onto a separate tube and centrifuged for 30 min at 19,500 ref. The supernatant (80%) was removed. Concentrations of untreated, filtered, and centrifuged samples were measured by BCA assay (Pierce).

Data set [9] has as its target T1, Aβ (1-40). Kind of data set: Transmission electron microscopy of Aβ aggregates. Conditions: 48 h at 37° C., 28 μM Aβ, 2.8 μM peptide. Type of data set: biochemical. The method, then:
as §1
Aβ alone (28 μM) or with peptides (G16 or CG3 at 2.8 μM) were prepared in PBSA and incubated for 48 hr at 37° C. A drop of sample was placed on a pioloform-coated grid and stained with methylamine tungstate stain. Images were taken with a Philips CM120 scanning transmission electron microscope (FEI Corp., Eindhoven, The Netherlands).

The next data set concerns Aβ toxicity. Particulars: cited from earlier work.

As to “SKVVTPPRYTIAKLLSPYSYSQ (not fully specified; also: cyclic (type not given here)) [SEQ ID NO: 17]”, the “self-association by PICUP” value in [1] is “significantly less self-association than SEQ ID NO: 1”.
With “SKVVT^DPPRYTIAALLSPYSYSQ [LG3] (SKVVT[dP]PRYTIAALLSPYSYSQ) [non-cyclized 22-mer, TTR residues 104-123 grafted onto DPro-Pro template]”, the “inhibition of ThT fluorescence increase” value with Aβ (1-40) [2] is reported as “unable to inhibit the ThT fluorescence increase”. Also, in the data set with Aβ (1-40) [3], the “interaction with Aβ (shift in cross-linked Aβ size distribution)” value is on record as “interact with Aβ; also recorded: weaker compared to CG3”. In the data set with Aβ (1-40) [4], the “effect on Aβ degradation by protease” value is listed as “Aβ degradation was delayed”. Moreover, the “effect on Aβ aggregation (hydrodynamic diameter, total scattered intensity)” value (“effect on Aβ aggregation” below) with Aβ (1-40) [5] (14 μM peptide) is reported as “little to no effect on Aβ aggregation”. Moreover, the “protection against Aβ toxicity” value in [6] (10 μM peptide) is listed as “no protective effect”. For the same substance, the “light scattering of peptide alone” value in data set [7] is “did not scatter light above background”.
Turning to “PRRYTIAALLSPYSWSDYKDDDDK [GF, linear peptide G16 with a C-terminal FLAG tag]”, the “inhibition of ThT fluorescence increase” value with Aβ (1-40) [2] is given as “unable to inhibit the ThT fluorescence increase”. In the data set with Aβ (1-40) [3], the “interaction with Aβ (shift in cross-linked Aβ size distribution)” value is on record as “interact with Aβ”. In the data set with Aβ (1-40) [4], the “effect on Aβ degradation by protease” value is given as “Aβ degradation was delayed”. Besides, the “effect on Aβ aggregation” value in the data set with Aβ (1-40) [5] (14 μM peptide) was “little to no effect on Aβ aggregation”. Besides, the “protection against Aβ toxicity” value in data set [6] (10 μM peptide) was “no protective effect”; in data set [6] (highest dose (40 μM)) it was “modest protection”. Also, the “self-association by PICUP” value in [1] is given as “some lower-molecular-weight multimers but none of the larger multimers”.
As to “SKV^DPPTIAALLSPYSYSQ [LG2] (SKV[dP]PTIAALLSPYSYSQ) [non-cyclized 18-mer, TTR residues 106-121 grafted onto DPro-Pro template]”, the “interaction with Aβ (shift in cross-linked Aβ size distribution)” value with Aβ (1-40) [3] was “do not show signs of interaction with Aβ”. The “effect on Aβ aggregation” value with Aβ (1-40) [5] (14 μM peptide) is recorded as “nor did they affect Aβ aggregation”. Besides, in [6], the “inhibition of Aβ toxicity (summary)” value is recorded as “nor did they affect Aβ aggregation or inhibit Aβ toxicity”. Moreover, in data set [1], the “self-association by PICUP” value is reported as “oligomer distribution was shifted towards lower molecular weight”.
Turning to “SKV^DPPTIAALLSPYSYSQ [CG2] (cyclo(SKV[dP]PTIAALLSPYSYSQ)) [cyclic 18-mer of TTR residues 106-121 grafted onto DPro-Pro template]”, the “interaction with Aβ (shift in cross-linked Aβ size distribution)” value with Aβ (1-40) [3] is “do not show signs of interaction with Aβ”. The “effect on Aβ degradation by protease” value with Aβ (1-40) [4] is reported as “did not have any effect on the time course of degradation”. Also, the “effect on Aβ aggregation” value with Aβ (1-40) [5] (14 μM peptide) is recorded as “did not affect Aβ aggregation; also recorded: nor did they affect Aβ aggregation”. In addition, the “inhibition of Aβ toxicity (summary)” value in data set [6] is given as “nor did they affect Aβ aggregation or inhibit Aβ toxicity”. Moreover, the “protection against Aβ toxicity” value in data set [6] (10 μM peptide) was “no protective effect”.
With “PRRYTIAALLSPYSWS [G16, 16-mer linear peptide, TTR residues 102-117, Y116W, reference compound]”, the “effect on fraction of Aβ aggregates removable by filtration or sedimentation” value in the data set with Aβ (1-40) [8] was “reduce the fraction of Aβ aggregates that can be removed by filtration or sedimentation”. Further, the “ThT fluorescence intensity of Aβ with peptide” value with Aβ (1-40) [2] (after 5 hr) is reported as “remained low”. In addition, the “ThT fluorescence intensity of Aβ with peptide” value with Aβ (1-40) [2] (after 24 hr) is listed as “ThT-positive species were detected”. Further, the “interaction with freshly prepared versus pre-aggregated Aβ” value with Aβ (1-40) [3] (freshly prepared or 1 day pre-aggregated Aβ) is listed as “showed no such selectivity”. Besides, in the data set with Aβ (1-40) [3], the “interaction with Aβ (shift in cross-linked Aβ size distribution)” value was “interact with Aβ”. In the data set with Aβ (1-40) [4], the “effect on Aβ degradation by protease” value was “Aβ degradation was delayed; also recorded: most effective in inhibiting degradation”. Besides, in the data set with Aβ (1-40) [5] (14 μM peptide), the “effect on Aβ aggregation” value is given as “increased the size of aggregates of Aβ” and the “intensity of scattered light of Aβ-peptide mixture” value was “enhanced the intensity of scattered light similarly”. The “mean hydrodynamic size of Aβ-peptide mixture” value with Aβ (1-40) [5] (after 5 hr, 10:1 molar excess of Aβ, 37° C.) is on record as “about 120 nm”. Further, in the data set with Aβ (1-40) [9], the “morphology of Aβ aggregates by TEM” value was “still a large number of fibrils”. Further, in data set [6] (highest dose tested), the “protection against Aβ toxicity” value is recorded as “small but significant protection”. Also, the “light scattering of peptide alone” value in [7] is listed as “scattered light above background”. For the same substance, the “fold less effective than full-length TTR at protecting cells from Aβ toxicity” value with Aβ toxicity was “about 25 fold”.
